Laboratory results published in patent US20210246166A1 (Bayer, published 2021).
Numbered stars: 1 amine (or outer) side, 2 acyl side, 3 side chain; on linkers, the order of the positions; unused ones are H or OH. Bridge positions count the residues as written; N and C are the ends. Square brackets hold non-standard residues; d marks the D form. Ends that are not written are not given here. * marks the point of attachment. X13 = (2S)‑2‑amino‑3‑(1-methylcyclopropyl)propanoic acid, CC1(C[C@H](N[*:1])C(=O)[*:2])CC1; Piperidin‑4‑ylacetic acid = O=C(CC1CCNCC1)*; Oic = O=C(O)[C@@H]1C[C@@H]2CCCC[C@@H]2N1; Gly(cPent) = N[C@H](C(=O)O)C1CCCC1; NMeI = CC[C@H](C)[C@H](NC)C(=O)O; tBuAla = CC(C)(C)C[C@H](N)C(=O)O; Chg = N[C@H](C(=O)O)C1CCCCC1; Pen = CC(C)(S)[C@H](N)C(=O)O; NMePro = CN1CCC[C@H]1C(=O)*; NMeC = CN[C@@H](CS)C(=O)O; NMeA = CN[C@@H](C)C(=O)O; Ahx = NCCCCCC(=O)O; Sar = CNCC(=O)O

T1: Recombinant human MASP1 enzyme (fragment corresponding to amino acids 297-699, C-terminal His Tag) (human, UniProt P48740 297-699)
T1 sequence: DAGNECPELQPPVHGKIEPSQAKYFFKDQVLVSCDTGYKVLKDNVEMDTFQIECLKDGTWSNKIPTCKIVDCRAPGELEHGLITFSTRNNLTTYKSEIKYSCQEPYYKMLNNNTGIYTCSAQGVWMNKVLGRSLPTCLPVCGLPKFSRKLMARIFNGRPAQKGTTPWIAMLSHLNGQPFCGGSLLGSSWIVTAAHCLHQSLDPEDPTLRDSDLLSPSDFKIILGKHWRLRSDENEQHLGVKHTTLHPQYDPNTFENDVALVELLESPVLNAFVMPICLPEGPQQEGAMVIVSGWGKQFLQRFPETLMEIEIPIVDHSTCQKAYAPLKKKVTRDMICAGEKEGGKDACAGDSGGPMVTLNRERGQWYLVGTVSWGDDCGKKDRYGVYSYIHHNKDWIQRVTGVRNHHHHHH


What was measured:
[1] = target: T1, Recombinant human MASP1 enzyme …; experiment: cell-based or functional assay
[2] = target: Recombinant human MASP2 enzyme (fragment corresponding to amino acids 297-686, C-terminal His Tag) (human, UniProt O00187 297-686); experiment: cell-based or functional assay
Recombinant human MASP2 enzyme (fragment corresponding to amino acids 297-686, C-terminal His Tag), sequence (O00187 other isoform, or with tags, fused parts or gaps limits assumed): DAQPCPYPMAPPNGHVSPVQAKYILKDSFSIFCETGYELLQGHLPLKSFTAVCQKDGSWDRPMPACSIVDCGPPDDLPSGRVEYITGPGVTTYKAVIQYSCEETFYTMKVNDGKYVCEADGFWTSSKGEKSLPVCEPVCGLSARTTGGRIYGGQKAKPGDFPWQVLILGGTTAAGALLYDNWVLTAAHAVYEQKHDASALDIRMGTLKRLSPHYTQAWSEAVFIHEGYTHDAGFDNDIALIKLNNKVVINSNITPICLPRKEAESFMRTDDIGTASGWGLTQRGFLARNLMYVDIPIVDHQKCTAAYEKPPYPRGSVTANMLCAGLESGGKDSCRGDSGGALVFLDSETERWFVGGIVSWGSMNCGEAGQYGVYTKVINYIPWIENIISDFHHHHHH

Row | Binder | human MASP1 IC50 [1] [nM] | human MASP2 IC50 [2] [nM]
1 | [Ahx]ICSRS[tBuAla]PPI[Pen]IP-NH2 (disulfide 3-11; N-terminus assumed; SMILES CC[C@H](C)[C@H](NC(=O)CCCCCN)C(=O)N[C@H]1CSSC(C)(C)[C@@H](C(=O)N[C@H](C(=O)N2CCC[C@H]2C(N)=O)[C@@H](C)CC)NC(=O)[C@H]([C@@H](C)CC)NC(=O)[C@@H]2CCCN2C(=O)[C@@H]2CCCN2C(=O)[C@H](CC(C)(C)C)NC(=O)[C@H](CO)NC(=O)[C@H](CCCNC(=N)N)NC(=O)[C@H](CO)NC1=O) [(Ahx)-IC+SRS-((tBu)A)-PPI-(Pen)+IP-NH2] | 9.9 | 16
2 | [Sar]ICSRS[X13]P[Oic]I[Pen]IP-NH2 (disulfide 3-11; N-terminus assumed; SMILES CC[C@H](C)[C@H](NC(=O)CNC)C(=O)N[C@H]1CSSC(C)(C)[C@@H](C(=O)N[C@H](C(=O)N2CCC[C@H]2C(N)=O)[C@@H](C)CC)NC(=O)[C@H]([C@@H](C)CC)NC(=O)[C@@H]2C[C@@H]3CCCC[C@@H]3N2C(=O)[C@@H]2CCCN2C(=O)[C@H](CC2(C)CC2)NC(=O)[C@H](CO)NC(=O)[C@H](CCCNC(=N)N)NC(=O)[C@H](CO)NC1=O) [((N-Me)G)-IC+SRS-((2S)-2-amino-3-(1-methylcyclopropyl)propanoic acid)-P-(Oic)-I-(Pen)+IP-NH2] | 11 | 57
3 | {Piperidin‑4‑ylacetic acid}-ICSRS[tBuAla]PPI[NMeC]I-NH2 (disulfide 2-10; SMILES CC[C@H](C)[C@H](NC(=O)[C@@H]1CSSC[C@H](NC(=O)[C@@H](NC(=O)CC2CCNCC2)[C@@H](C)CC)C(=O)N[C@@H](CO)C(=O)N[C@@H](CCCNC(=N)N)C(=O)N[C@@H](CO)C(=O)N[C@@H](CC(C)(C)C)C(=O)N2CCC[C@H]2C(=O)N2CCC[C@H]2C(=O)N[C@@H]([C@@H](C)CC)C(=O)N1C)C(N)=O) [(Piperidin-4-ylacetic acid)-IC+SRS-((tBu)A)-PPI-((N-Me)C)+I-NH2] | 10 | 32
4 | [Sar]ICSRSLP[Oic]I[Pen]IP-NH2 (disulfide 3-11; also: tartrate salt) [((N-Me)G)-IC+SRSLP-(Oic)-I-(Pen)+IP-NH2 (Tartrate)] | 1.1 | 35
5 | [NMeA]ICSRS[tBuAla]PPICIPD-NH2 (disulfide 3-11; N-terminus assumed; SMILES CC[C@H](C)[C@H](NC(=O)[C@H](C)NC)C(=O)N[C@H]1CSSC[C@@H](C(=O)N[C@H](C(=O)N2CCC[C@H]2C(=O)N[C@@H](CC(=O)O)C(N)=O)[C@@H](C)CC)NC(=O)[C@H]([C@@H](C)CC)NC(=O)[C@@H]2CCCN2C(=O)[C@@H]2CCCN2C(=O)[C@H](CC(C)(C)C)NC(=O)[C@H](CO)NC(=O)[C@H](CCCNC(=N)N)NC(=O)[C@H](CO)NC1=O) [((N-Me)A)-IC+SRS-((tBu)A)-PPIC+IPD-NH2] | 9.5 | 440
6 | [NMePro]ICSRS[tBuAla]PPICIPD-NH2 (disulfide 3-11; SMILES CC[C@H](C)[C@H](NC(=O)[C@@H]1CCCN1C)C(=O)N[C@H]1CSSC[C@@H](C(=O)N[C@H](C(=O)N2CCC[C@H]2C(=O)N[C@@H](CC(=O)O)C(N)=O)[C@@H](C)CC)NC(=O)[C@H]([C@@H](C)CC)NC(=O)[C@@H]2CCCN2C(=O)[C@@H]2CCCN2C(=O)[C@H](CC(C)(C)C)NC(=O)[C@H](CO)NC(=O)[C@H](CCCNC(=N)N)NC(=O)[C@H](CO)NC1=O) [((N-Me)P)-IC+SRS-((tBu)A)-PPIC+IPD-NH2] | 9.3 | 260
7 | [Sar][Sar][Sar][Sar][Sar]ICSRS[tBuAla]PPI[Pen]IP-NH2 (disulfide 7-15; N-terminus assumed; SMILES CC[C@H](C)[C@H](NC(=O)CN(C)C(=O)CN(C)C(=O)CN(C)C(=O)CN(C)C(=O)CNC)C(=O)N[C@H]1CSSC(C)(C)[C@@H](C(=O)N[C@H](C(=O)N2CCC[C@H]2C(N)=O)[C@@H](C)CC)NC(=O)[C@H]([C@@H](C)CC)NC(=O)[C@@H]2CCCN2C(=O)[C@@H]2CCCN2C(=O)[C@H](CC(C)(C)C)NC(=O)[C@H](CO)NC(=O)[C@H](CCCNC(=N)N)NC(=O)[C@H](CO)NC1=O) [((N-Me)G)-((N-Me)G)-((N-Me)G)-((N-Me)G)-((N-Me)G)-IC+SRS-((tBu)A)-PPI-(Pen)+IP-NH2] | 11 | 38

Next, values leading:

Row | human MASP1 IC50 [1] [nM] | human MASP2 IC50 [2] [nM] | Binder
8 | 10 | 110 | [dK]ICSRS[tBuAla]PPI[Pen]I-NH2 (disulfide 3-11; N-terminus assumed; SMILES CC[C@H](C)[C@H](NC(=O)[C@H]1NC(=O)[C@H]([C@@H](C)CC)NC(=O)[C@@H]2CCCN2C(=O)[C@@H]2CCCN2C(=O)[C@H](CC(C)(C)C)NC(=O)[C@H](CO)NC(=O)[C@H](CCCNC(=N)N)NC(=O)[C@H](CO)NC(=O)[C@@H](NC(=O)[C@@H](NC(=O)[C@H](N)CCCCN)[C@@H](C)CC)CSSC1(C)C)C(N)=O) [kIC+SRS-((tBu)A)-PPI-(Pen)+I-NH2]
9 | 10.1 | 2700 | A[NMeI]CSRSLPPICIPD-NH2 (disulfide 3-11; N-terminus assumed; SMILES CC[C@H](C)[C@@H]1NC(=O)[C@@H]2CCCN2C(=O)[C@@H]2CCCN2C(=O)[C@H](CC(C)C)NC(=O)[C@H](CO)NC(=O)[C@H](CCCNC(=N)N)NC(=O)[C@H](CO)NC(=O)[C@@H](NC(=O)[C@H]([C@@H](C)CC)N(C)C(=O)[C@H](C)N)CSSC[C@@H](C(=O)N[C@H](C(=O)N2CCC[C@H]2C(=O)N[C@@H](CC(=O)O)C(N)=O)[C@@H](C)CC)NC1=O) [A-((N-Me)I)-C+SRSLPPIC+IPD-NH2]
10 | 10 | 400 | ICSRS[tBuAla]PPI[Pen]IP-OH (disulfide 2-10; N-terminus assumed; SMILES CC[C@H](C)[C@H](N)C(=O)N[C@H]1CSSC(C)(C)[C@@H](C(=O)N[C@H](C(=O)N2CCC[C@H]2C(=O)O)[C@@H](C)CC)NC(=O)[C@H]([C@@H](C)CC)NC(=O)[C@@H]2CCCN2C(=O)[C@@H]2CCCN2C(=O)[C@H](CC(C)(C)C)NC(=O)[C@H](CO)NC(=O)[C@H](CCCNC(=N)N)NC(=O)[C@H](CO)NC1=O) [IC+SRS-((tBu)A)-PPI-(Pen)+IP-OH]
11 | 11 | 1200 | ICSRSLP[Oic]I[Pen]IP-OH (disulfide 2-10; N-terminus assumed; SMILES CC[C@H](C)[C@H](N)C(=O)N[C@H]1CSSC(C)(C)[C@@H](C(=O)N[C@H](C(=O)N2CCC[C@H]2C(=O)O)[C@@H](C)CC)NC(=O)[C@H]([C@@H](C)CC)NC(=O)[C@@H]2C[C@@H]3CCCC[C@@H]3N2C(=O)[C@@H]2CCCN2C(=O)[C@H](CC(C)C)NC(=O)[C@H](CO)NC(=O)[C@H](CCCNC(=N)N)NC(=O)[C@H](CO)NC1=O) [IC+SRSLP-(Oic)-I-(Pen)+IP-OH]
12 | 10 | 620 | ICSRS[tBuAla]PPI[NMeC]IPD-NH2 (disulfide 2-10; N-terminus assumed; SMILES CC[C@H](C)[C@H](N)C(=O)N[C@H]1CSSC[C@@H](C(=O)N[C@H](C(=O)N2CCC[C@H]2C(=O)N[C@@H](CC(=O)O)C(N)=O)[C@@H](C)CC)N(C)C(=O)[C@H]([C@@H](C)CC)NC(=O)[C@@H]2CCCN2C(=O)[C@@H]2CCCN2C(=O)[C@H](CC(C)(C)C)NC(=O)[C@H](CO)NC(=O)[C@H](CCCNC(=N)N)NC(=O)[C@H](CO)NC1=O) [IC+SRS-((tBu)A)-PP-I-((N-Me)C)+IPD-NH2]
13 | 9.4 | 480 | AICSRSNPPI[Pen]IPD-NH2 (disulfide 3-11; N-terminus assumed; SMILES CC[C@H](C)[C@H](NC(=O)[C@H](C)N)C(=O)N[C@H]1CSSC(C)(C)[C@@H](C(=O)N[C@H](C(=O)N2CCC[C@H]2C(=O)N[C@@H](CC(=O)O)C(N)=O)[C@@H](C)CC)NC(=O)[C@H]([C@@H](C)CC)NC(=O)[C@@H]2CCCN2C(=O)[C@@H]2CCCN2C(=O)[C@H](CC(N)=O)NC(=O)[C@H](CO)NC(=O)[C@H](CCCNC(=N)N)NC(=O)[C@H](CO)NC1=O) [AIC+SRSNPPI-(Pen)+IPD-NH2]
14 | 9.8 | 73.5 | AICSRSLPP[Chg]CIPD-NH2 (disulfide 3-11; N-terminus assumed; SMILES CC[C@H](C)[C@H](NC(=O)[C@H](C)N)C(=O)N[C@H]1CSSC[C@@H](C(=O)N[C@H](C(=O)N2CCC[C@H]2C(=O)N[C@@H](CC(=O)O)C(N)=O)[C@@H](C)CC)NC(=O)[C@H](C2CCCCC2)NC(=O)[C@@H]2CCCN2C(=O)[C@@H]2CCCN2C(=O)[C@H](CC(C)C)NC(=O)[C@H](CO)NC(=O)[C@H](CCCNC(=N)N)NC(=O)[C@H](CO)NC1=O) [AIC+SRSLPP-(Chg)-C+IPD-NH2]
15 | 11 | 170 | AICSRSLPP[Gly(cPent)]CIPD-NH2 (disulfide 3-11; N-terminus assumed; SMILES CC[C@H](C)[C@H](NC(=O)[C@H](C)N)C(=O)N[C@H]1CSSC[C@@H](C(=O)N[C@H](C(=O)N2CCC[C@H]2C(=O)N[C@@H](CC(=O)O)C(N)=O)[C@@H](C)CC)NC(=O)[C@H](C2CCCC2)NC(=O)[C@@H]2CCCN2C(=O)[C@@H]2CCCN2C(=O)[C@H](CC(C)C)NC(=O)[C@H](CO)NC(=O)[C@H](CCCNC(=N)N)NC(=O)[C@H](CO)NC1=O) [AIC+SRSLPP-(Cpg)-C+IPD-NH2]
